In PMC9458457, “Processing oxidatively damaged bases at DNA strand breaks by APE1”:

Target: dAPE1 C138A E96Q/D210N (crystallization) (human, UniProt P27695 44-318, E96Q;C138A;D210N;del1-43)
Experiment: X-ray crystallography; 5 mM CaCl2 in reservoir; Anisotropy: 50 mM HEPES pH 7.4, 100 mM KCl, 5% glycerol, 20 mM EDTA, 37 C, 10 nM DNA. Crystals: 7-14% PEG 20K, 100 mM sodium citrate pH 5.0, 15% glycerol, 5 mM
Settings: protein: recombinant; tags: untagged; nicked duplex, blunt ends; 8-oxoG opposite C (strand 1 position 12)

Chain of dAPE1 C138A E96Q/D210N (crystallization) (P27695 44-318 E96Q/C138A/D210N): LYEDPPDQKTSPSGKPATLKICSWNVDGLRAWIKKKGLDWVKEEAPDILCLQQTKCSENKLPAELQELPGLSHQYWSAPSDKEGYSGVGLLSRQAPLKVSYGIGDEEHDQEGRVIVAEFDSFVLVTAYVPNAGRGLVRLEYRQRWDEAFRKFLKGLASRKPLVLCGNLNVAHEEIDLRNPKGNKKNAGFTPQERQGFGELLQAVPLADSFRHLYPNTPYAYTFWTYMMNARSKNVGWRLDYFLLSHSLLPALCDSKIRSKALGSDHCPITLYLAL

B1: 21-mer nicked 3'-8-oxoG opposite C (crystal) (mixed)
DNA 1: GGATCCGTCGACCGCATCAGC
DNA 2: GCTGATGCGG
DNA 3: TCGACGGATCC
modifications: 8-oxoG at 3' end of strand 2 (position 10, written G); 5'-phosphate on strand 3
**Q.** Does B1 bind?
**A.** binds
